{"source": "IntAct's records for PubMed 17641687", "parents": {"B1": {"name": "Kinesin-like protein KIF16B (Homo sapiens), Q96L93 (parent)", "chain": "MASVKVAVRVRPMNRREKDLEAKFIIQMEKSKTTITNLKIPEGGTGDSGRERTKTFTYDFSFYSADTKSPDYVSQEMVFKTLGTDVVKSAFEGYNACVFAYGQTGSGKSYTMMGNSGDSGLIPRICEGLFSRINETTRWDEASFRTEVSYLEIYNERVRDLLRRKSSKTFNLRVREHPKEGPYVEDLSKHLVQNYGDVEELMDAGNINRTTAATGMNDVSSRSHAIFTIKFTQAKFDSEMPCETVSKIHLVDLAGSERADATGATGVRLKEGGNINKSLVTLGNVISALADLSQDAANTLAKKKQVFVPYRDSVLTWLLKDSLGGNSKTIMIATISPADVNYGETLSTLRYANRAKNIINKPTINEDANVKLIRELRAEIARLKTLLAQGNQIALLDSPTALSMEEKLQQNEARVQELTKEWTNKWNETQNILKEQTLALRKEGIGVVLDSELPHLIGIDDDLLSTGIILYHLKEGQTYVGRDDASTEQDIVLHGLDLESEHCIFENIGGTVTLIPLSGSQCSVNGVQIVEATHLNQGAVILLGRTNMFRFNHPKEAAKLREKRKSGLLSSFSLSMTDLSKSRENLSAVMLYNPGLEFERQQREELEKLESKRKLIEEMEEKQKSDKAELERMQQEVETQRKETEIVQLQIRKQEESLKRRSFHIENKLKDLLAEKEKFEEERLREQQEIELQKKRQEEETFLRVQEELQRLKELNNNEKAEKFQIFQELDQLQKEKDEQYAKLELEKKRLEEQEKEQVMLVAHLEEQLREKQEMIQLLRRGEVQWVEEEKRDLEGIRESLLRVKEARAGGDEDGEELEKAQLRFFEFKRRQLVKLVNLEKDLVQQKDILKKEVQEEQEILECLKCEHDKESRLLEKHDESVTDVTEVPQDFEKIKPVEYRLQYKERQLQYLLQNHLPTLLEEKQRAFEILDRGPLSLDNTLYQVEKEMEEKEEQLAQYQANANQLQKLQATFEFTANIARQEEKVRKKEKEILESREKQQREALERALARLERRHSALQRHSTLGMEIEEQRQKLASLNSGSREQSGLQASLEAEQEALEKDQERLEYEIQQLKQKIYEVDGVQKDHHGTLEGKVASSSLPVSAEKSHLVPLMDARINAYIEEEVQRRLQDLHRVISEGCSTSADTMKDNEKLHNGTIQRKLKYERMVSRSLGANPDDLKDPIKISIPRYVLCGQGKDAHFEFEVKITVLDETWTVFRRYSRFREMHKTLKLKYAELAALEFPPKKLFGNKDERVIAERRSHLEKYLRDFFSVMLQSATSPLHINKVGLTLSKHTICEFSPFFKKGVFDYSSHGTG"}}, "data": [{"variants_of": "B1", "conditions": "with eea1_human EEA1, Q15075", "values": [{"variant": "F1249A", "effect of a mutation on the interaction": "disrupting interaction"}, {"variant": "L1248A", "effect of a mutation on the interaction": "disrupting interaction"}]}]}
